Data set [1] has as its target T1, c-Met ectodomain-Fc fusion (HGFR) (UniProt P08581 P08581:25-932). The data set is described as follows: filter; competition vs 32P-trCLN3; PBS pH 7.4, 3 mM MgCl2, tRNA 1 mg/ml, BSA 1 mg/ml, 37 C. Particulars: tags: human IgG1 Fc fusion; His (detected with anti-penta-His); R&D Systems; chain copies: 2; label: biotin; G4. On the procedure:
(§1) To determine the affinity, ˜10 fmol of radiolabeled aptamer was incubated with protein dilution series for 30 min at 37° C. in 25 μL of buffer containing 1 mg/ml E. coli tRNA (Roche, Mannheim, Germany), 1 μg/ml BSA, 3 mM MgCl₂ in PBS, pH 7.4. For Sec7, 0.005% Triton X-100 was added and for c-Met-Fc, 1 mg/ml of BSA was used instead of 1 μg/ml. The aptamer-protein complexes were captured on a Protran™ nitrocellulose membrane (GE Healthcare) that was pre-incubated in 0.4 M KOH for 10 minutes, followed by washing with ddH₂O and PBS containing 3 mM MgCl₂, pH 7.4. After addition of the aptamer-protein solution, the filter was washed 4 times with PBS containing 3 mM MgCl₂, pH 7.4. Radioactivity was quantified using a Fujifilm Fla-3000 PhosphorImager and AIDA software package. The percentage of bound aptamer was calculated using equation 1: […]

Data set [2] concerns the target T1, c-Met ectodomain-Fc fusion (HGFR). The data set is described as follows: filter; competition vs 32P-trCLN3; PBS pH 7.4, 3 mM MgCl2, tRNA, BSA, 37 C; nanomolar affinity stated. Particulars: tags: human IgG1 Fc fusion; His (detected with anti-penta-His); R&D Systems; chain copies: 2; label: 5'-32P for radiolabeled tracer; G4 (two G-quadruplexes).
The target is the same in data set [3]. The data set is described as follows: filter; no binding in tested range; in photo-crosslinking 24-fold lower signal than ABAL-trCLN3 at 500 nM c-Met (p87). Particulars: tags: human IgG1 Fc fusion; His (detected with anti-penta-His); R&D Systems; chain copies: 2; label: biotin. On the procedure: as §1
The target in data set [4] is T2, Cytohesin-2 Sec7 domain (UniProt Q99418 Q99418:72-201).
T2 sequence: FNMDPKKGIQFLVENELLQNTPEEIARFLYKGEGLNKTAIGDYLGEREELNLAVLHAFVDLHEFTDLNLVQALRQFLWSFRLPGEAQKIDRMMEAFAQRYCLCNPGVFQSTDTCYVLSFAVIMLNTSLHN
The data set is described as follows: filter; competition vs 32P-C10.35; IC50 only in figure; 3 mM MgCl2 in PBS, 0.005% Triton X-100, 37 C. Particulars: tags: His (detected with anti-penta-His); expressed in E. coli; label: 5'-32P for radiolabeled tracer; stem with a double bulge. On the procedure: (§2) To determine the affinity, ˜10 fmol of radiolabeled aptamer was incubated with protein dilution series for 30 min at 37° C. in 25 μL of buffer containing 1 mg/ml E. coli tRNA (Roche, Mannheim, Germany), 1 μg/ml BSA, 3 mM MgCl₂ in PBS, pH 7.4. For Sec7, 0.005% Triton X-100 was added and for c-Met-Fc, 1 mg/ml of BSA was used instead of 1 μg/ml. The aptamer-protein complexes were captured on a Protran™ nitrocellulose membrane (GE Healthcare) that was pre-incubated in 0.4 M KOH for 10 minutes, followed by washing with ddH₂O and PBS containing 3 mM MgCl₂, pH 7.4. After addition of the aptamer-protein solution, the filter was washed 4 times with PBS containing 3 mM MgCl₂, pH 7.4. Radioactivity was quantified using a Fujifilm Fla-3000 PhosphorImager and AIDA software package. The percentage of bound aptamer was calculated using equation 1:
(§3) Filter retention assays in which the 5′-functionalized aptamer competed with the non-functionalized aptamer for binding to Sec-7 were performed as described above to test the influence of the 5′-functionalization on aptamer binding.

For data set [5], the target named is T2, Cytohesin-2 Sec7 domain. The data set is described as follows: 365 nm photo-crosslinking, Western blot; marginal at highest concentration only; no band in H460 lysate (p104). Particulars: tags: His (detected with anti-penta-His); expressed in E. coli; label: biotin. The protocol:
Incubation of the target protein Sec7 with the 5′-functionalized aptamer C10.35 was performed by mixing 250 nM of the aptamer with different protein concentrations at 37° C. for 30 min as described in Examples 2 and 4. Crosslinking also was performed on ice by illuminating at 365 nm for 10 minutes.
Further, the amount of cross-linking of the 5′-functionalized aptamer C 10.35 to Sec-7 was investigated after incubating […] 167 nm, 56 nm and 19 nM Sec-7 with 250 nM of the 5′-functionalized aptamers C10.35 and C10.35 C15T, followed by UV irradiation at 365 nm using SDS-PAGE, followed by western blotting using neutravidin-dylight™ 800 (Thermo Scientific) to visualize biotinylated proteins. Anti-penta-his (1:2000, Qiagen) was used to visualize the total amount of Sec7 and goat-anti-mouse-IgG-dylight™ 800 (Thermo Scientific) was used as a secondary antibody. The blots were scanned at 800 nm using an Odyssey scanner (Li-cor Biotechnology, Bad Homburg, Germany).

For data set [6], the target named is T2, Cytohesin-2 Sec7 domain. The data set is described as follows: filter; affinity not altered vs unfunctionalized C10.35; high UV cross-linking; also cross-links in H460 lysate (p104). The settings on record: tags: His (detected with anti-penta-His); expressed in E. coli; label: biotin; stem with a double bulge. The protocol: as §2, §3

Data on six molecules can be found in US20170059576, “METHOD OF DETERMINING A PROTEIN IN A SAMPLE” (RHEINISCHE FRIEDRICH-WILHELMS UNIVERSITAT BONN, published 2017).

T1 sequence (P08581 25-932, one chain of several): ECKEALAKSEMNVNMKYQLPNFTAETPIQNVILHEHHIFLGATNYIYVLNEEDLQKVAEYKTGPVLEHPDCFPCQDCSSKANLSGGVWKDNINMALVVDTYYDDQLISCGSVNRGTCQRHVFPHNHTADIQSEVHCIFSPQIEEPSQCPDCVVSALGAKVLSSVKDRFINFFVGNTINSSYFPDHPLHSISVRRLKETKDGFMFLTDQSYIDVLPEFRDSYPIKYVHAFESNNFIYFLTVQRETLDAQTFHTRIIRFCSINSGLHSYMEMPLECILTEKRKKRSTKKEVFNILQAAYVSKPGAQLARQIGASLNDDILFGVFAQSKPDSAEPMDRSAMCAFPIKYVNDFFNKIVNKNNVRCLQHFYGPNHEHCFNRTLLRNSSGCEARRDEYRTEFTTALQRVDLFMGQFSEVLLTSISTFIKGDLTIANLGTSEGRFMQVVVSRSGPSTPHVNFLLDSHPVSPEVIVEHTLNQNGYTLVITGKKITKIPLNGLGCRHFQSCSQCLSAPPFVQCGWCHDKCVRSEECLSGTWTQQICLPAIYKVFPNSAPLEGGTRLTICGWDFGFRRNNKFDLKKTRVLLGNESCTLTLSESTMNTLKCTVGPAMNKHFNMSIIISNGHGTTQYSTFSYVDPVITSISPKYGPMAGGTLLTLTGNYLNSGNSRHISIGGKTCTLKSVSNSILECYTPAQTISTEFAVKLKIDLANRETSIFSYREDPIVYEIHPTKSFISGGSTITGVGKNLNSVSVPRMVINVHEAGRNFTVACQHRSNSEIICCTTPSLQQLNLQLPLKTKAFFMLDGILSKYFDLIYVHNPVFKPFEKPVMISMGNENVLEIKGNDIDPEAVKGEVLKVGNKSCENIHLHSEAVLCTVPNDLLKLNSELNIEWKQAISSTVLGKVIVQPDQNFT

TGGATGGTAGCTCGGTCGGGGTGGGTGGGTTGGCAAGTCT (ssDNA, 5'-hexylamine coupled Sulfo-SBED (phenyl azide, biotin)) [ABAL-trCLN3] showed an IC50 in data set [1] of 50 nM.

The molecule TGGATGGTAGCTCGGTCGGGGTGGGTGGGTTGGCAAGTCT (ssDNA) [trCLN3] gave an IC50 in data set [2] of 76 nM.

Consider TGGATGGTAGCTCGGTCGGGGTGGATGGGTTGGCAAGTCT (ssDNA, 5'-hexylamine coupled Sulfo-SBED (phenyl azide, biotin)) [ABAL-trCLN3 G25A], for which, in data set [3], the binding result is listed as “no binding”.

As for ACTCGGGAGGACTGCTTAGGATTGCGAACCCGGGT (ssDNA) [C10.35], the binding result with Cytohesin-2 Sec7 domain [4] is “binds”.

Take ACTCGGGAGGACTGTTTAGGATTGCGAACCCGGGT (ssDNA, 5'-hexylamine coupled Sulfo-SBED (phenyl azide, biotin)) [ABAL-C10.35 C15T]: the binding signal in the data set with Cytohesin-2 Sec7 domain [5] was 7 fold lower cross-linking than ABAL-C10.35.

Take ACTCGGGAGGACTGCTTAGGATTGCGAACCCGGGT (ssDNA, 5'-hexylamine coupled Sulfo-SBED (phenyl azide, biotin)) [ABAL-C10.35]: the binding result in the data set with Cytohesin-2 Sec7 domain [6] is on record as “binds”.
